This is an account of results in article PMC11237882 (2024).

One experiment concerns the target ENAH EVH1 (Homo sapiens, UniProt Q8N8S7). Nature of the experiment: BLI. For orientation: BLI is a label-free optical method that tracks binding on a fibre tip over time.
The next experiment deals with T1, Homer1 EVH1 (Homo sapiens, UniProt Q86YM7).
T1 chain: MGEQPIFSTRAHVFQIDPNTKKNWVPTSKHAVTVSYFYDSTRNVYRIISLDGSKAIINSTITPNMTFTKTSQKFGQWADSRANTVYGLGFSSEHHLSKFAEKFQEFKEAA
As to the kind of experiment: BLI.

Chain of ENAH EVH1 (Q8N8S7 1-111): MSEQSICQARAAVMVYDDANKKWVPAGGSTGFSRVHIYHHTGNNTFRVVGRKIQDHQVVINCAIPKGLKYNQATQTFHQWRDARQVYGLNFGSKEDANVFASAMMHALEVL

GYPYQYPGPPPCFPPAYQDP [DVL1]: the Kd with ENAH EVH1 was > 150 µM.
The same measure, in the same setting: the same measure for PNHLPLPGPPFSFQNVLVVL [KANK4]: > 150 µM.
As to ALPHPGAAPWPMAFPYQYPPPAHPYNPHPGFPELGY [DVL3P1A], the Kd in the experiment with Homer1 EVH1 was > 150 µM.
As to RPATGYPLPPQIFNESQYRG [SH3BGRL], the Kd with ENAH EVH1 was > 150 µM.
On the same count and under the same terms, next, FIAHILPAPPDCFPDKVKAF [FLNC]: > 150 µM.

What is called Kd is the concentration at which binding is half-saturated. A low value points to higher affinity.
